Test results published in patent US20200199213A1 (Eli Lilly, published 2020).
Where a chain is given by its changes, count along the chain named. Names and notes keep the numbering of the source. Like-named read-outs stand apart in the source and are kept apart here.

Key:
[1] = molecular target: T1, cynomolgus ANGPTL3/8 complex (cynomolgus, UniProt A0A2K5UDC5 17-460; A0A2K5WWS3 22-198); experiment: cell-based or functional assay
T1 sequence 1: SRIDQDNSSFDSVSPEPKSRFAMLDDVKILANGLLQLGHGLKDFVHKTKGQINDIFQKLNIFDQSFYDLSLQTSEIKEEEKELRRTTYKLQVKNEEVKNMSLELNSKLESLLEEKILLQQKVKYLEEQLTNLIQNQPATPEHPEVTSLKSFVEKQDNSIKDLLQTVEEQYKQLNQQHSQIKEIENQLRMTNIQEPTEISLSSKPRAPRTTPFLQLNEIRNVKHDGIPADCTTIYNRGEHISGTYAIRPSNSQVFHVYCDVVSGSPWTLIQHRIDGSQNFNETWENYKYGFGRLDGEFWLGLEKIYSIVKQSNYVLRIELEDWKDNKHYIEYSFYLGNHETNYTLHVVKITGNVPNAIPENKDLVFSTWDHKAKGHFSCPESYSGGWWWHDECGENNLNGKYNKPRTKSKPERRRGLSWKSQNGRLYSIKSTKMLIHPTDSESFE
T1 sequence 2: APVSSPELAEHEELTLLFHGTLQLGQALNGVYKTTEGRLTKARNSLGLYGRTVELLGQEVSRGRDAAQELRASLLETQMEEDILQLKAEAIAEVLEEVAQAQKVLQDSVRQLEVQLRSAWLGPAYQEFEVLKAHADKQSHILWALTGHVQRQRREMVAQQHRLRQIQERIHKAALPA

[2] = molecular target: T2, mouse ANGPTL3/8 complex (mouse, UniProt Q9R182 17-455; Q8R1L8 16-198, limits assumed); experiment: SPR, Biacore T200; Ab captured on Human Fab Binder, complex injected; pH 7.4, 25 C
T2 sequence (looked up) 1: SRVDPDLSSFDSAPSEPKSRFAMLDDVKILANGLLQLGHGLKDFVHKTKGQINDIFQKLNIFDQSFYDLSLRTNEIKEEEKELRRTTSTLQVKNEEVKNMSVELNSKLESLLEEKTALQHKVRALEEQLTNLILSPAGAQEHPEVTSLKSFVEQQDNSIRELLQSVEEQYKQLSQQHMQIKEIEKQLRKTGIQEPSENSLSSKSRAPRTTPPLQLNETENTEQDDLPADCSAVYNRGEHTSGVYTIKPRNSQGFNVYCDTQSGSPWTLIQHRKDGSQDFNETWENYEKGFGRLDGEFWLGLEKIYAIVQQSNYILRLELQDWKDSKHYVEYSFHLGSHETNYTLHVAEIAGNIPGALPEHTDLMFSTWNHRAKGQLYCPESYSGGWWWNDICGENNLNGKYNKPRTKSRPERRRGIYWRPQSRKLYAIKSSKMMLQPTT
T2 sequence (looked up) 2: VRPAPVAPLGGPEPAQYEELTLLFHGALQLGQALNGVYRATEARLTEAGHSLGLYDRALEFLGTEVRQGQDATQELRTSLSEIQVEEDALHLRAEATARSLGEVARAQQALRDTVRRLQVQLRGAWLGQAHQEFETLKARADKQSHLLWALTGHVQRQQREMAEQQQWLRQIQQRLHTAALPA

[3] = molecular target: T1, cynomolgus ANGPTL3/8 complex; experiment: as above
[4] = molecular target: T3, human ANGPTL3/8 complex (human, UniProt Q9Y5C1 17-460; Q6UXH0 22-198, limits assumed); experiment: as above
T3 construct: also called hANGPTL3/8 complex; ANGTPL3/8 complex
T3 sequence 1: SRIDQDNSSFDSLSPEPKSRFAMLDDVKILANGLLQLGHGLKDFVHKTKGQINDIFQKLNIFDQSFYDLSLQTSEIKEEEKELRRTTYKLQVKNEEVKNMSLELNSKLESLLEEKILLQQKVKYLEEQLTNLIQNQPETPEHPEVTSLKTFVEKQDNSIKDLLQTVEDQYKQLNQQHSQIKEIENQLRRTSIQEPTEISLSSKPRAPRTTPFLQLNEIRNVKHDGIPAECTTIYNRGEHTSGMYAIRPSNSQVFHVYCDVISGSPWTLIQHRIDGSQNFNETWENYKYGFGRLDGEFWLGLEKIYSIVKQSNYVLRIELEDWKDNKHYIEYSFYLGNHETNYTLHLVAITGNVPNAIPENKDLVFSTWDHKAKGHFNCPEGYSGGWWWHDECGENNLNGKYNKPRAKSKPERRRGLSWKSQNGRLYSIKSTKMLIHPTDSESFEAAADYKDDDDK
T3 sequence 2: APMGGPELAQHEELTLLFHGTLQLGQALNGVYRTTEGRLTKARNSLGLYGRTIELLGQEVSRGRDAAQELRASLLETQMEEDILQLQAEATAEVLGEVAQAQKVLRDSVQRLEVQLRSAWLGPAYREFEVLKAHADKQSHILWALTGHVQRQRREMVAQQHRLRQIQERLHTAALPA

[5] = molecular target: T2, mouse ANGPTL3/8 complex; experiment: as above; remark: listed apart in the source
[6] = molecular target: T1, cynomolgus ANGPTL3/8 complex; experiment: as above; remark: listed apart in the source
[7] = molecular target: T3, human ANGPTL3/8 complex; experiment: as above; remark: listed apart in the source

B1: anti-ANGPTL3/8 complex Ab having a LC of SEQ ID NO:5 and a HC of SEQ ID NO:6 (antibody, human IgG4 S228P, kappa, F234A L235A, V domains shown)
VH: QVTLKESGPTLVKPTQTLTLTCTFSGFSLSISGVGVGWIRQPPGKALEWLALIYRNDDKRYSPSLKSRLTITKDTSKNQVVLTLTNMDPVDTATYYCARTYSSGWYGNWFDPWGQGTLVTVSS
VL: DIVMTQTPLSLPVTPGEPASISCRSSQSLLDSDDGNTYLDWYLQKPGQSPQLLIYMLSYRASGVPDRFSGSGSGTDFTLKISRVEAEDVGIYYCMQRIEFPLTFGGGTKVEIKR
notes: In the ELISA assays tested as IgG from CHO supernatants; also called the Ab
% Max Derepression of LPL [1]: 96%
Ab EC50 (nM), derepression of LPL [1]: 1.31 nM

B2: Ab with LC variant having a D33A mutation (SEQ ID NO:22) and a HC of SEQ ID NO:6 (antibody, human IgG4 S228P, kappa, F234A L235A, V domains shown)
VH: B1 VH
VL: B1 VL with D33A
notes: also called D33A Variant Ab; D33A Ab
Kd [2]: 0.68 nM
koff [2]: 0.000347 s⁻¹
kon [2]: 515000 M⁻¹ s⁻¹
Kd [3]: 0.609 nM
koff [3]: 0.000265 s⁻¹
kon [3]: 435000 M⁻¹ s⁻¹
Kd [4]: 0.201 nM
koff [4]: 9.19e-05 s⁻¹
kon [4]: 457000 M⁻¹ s⁻¹

B3: Ab with LC variant having a E99Q mutation (SEQ ID NO:25) and a HC of SEQ ID NO:6 (antibody, human IgG4 S228P, kappa, F234A L235A, V domains shown)
VH: B1 VH
VL: B1 VL with E99Q
notes: also called E99Q Variant Ab; E99Q Ab
Kd [5]: 0.254 nM
koff [5]: 0.000151 s⁻¹
kon [5]: 596000 M⁻¹ s⁻¹
Kd [6]: 0.116 nM
koff [6]: 7.23e-05 s⁻¹
kon [6]: 620000 M⁻¹ s⁻¹
Kd [7]: 0.0484 nM
koff [7]: 3.26e-05 s⁻¹
kon [7]: 674000 M⁻¹ s⁻¹
